In PMC10870365, “Dissection of protein and RNA regions required for SPEN binding to XIST A-repeat RNA”:

Assays:
[1] = target: T1, SPEN RRM 1-4 (Homo sapiens) (UniProt Q96T58); assay: EMSA; conditions: EMSA: 20 mM Tris-HCl pH 7.5, 150 mM KCl, 5 mM MgCl2, 10% glycerol, room temperature 30 min, 2 nM each labeled RNA (multiplexed), 4.5% TBE native gel
T1 sequence: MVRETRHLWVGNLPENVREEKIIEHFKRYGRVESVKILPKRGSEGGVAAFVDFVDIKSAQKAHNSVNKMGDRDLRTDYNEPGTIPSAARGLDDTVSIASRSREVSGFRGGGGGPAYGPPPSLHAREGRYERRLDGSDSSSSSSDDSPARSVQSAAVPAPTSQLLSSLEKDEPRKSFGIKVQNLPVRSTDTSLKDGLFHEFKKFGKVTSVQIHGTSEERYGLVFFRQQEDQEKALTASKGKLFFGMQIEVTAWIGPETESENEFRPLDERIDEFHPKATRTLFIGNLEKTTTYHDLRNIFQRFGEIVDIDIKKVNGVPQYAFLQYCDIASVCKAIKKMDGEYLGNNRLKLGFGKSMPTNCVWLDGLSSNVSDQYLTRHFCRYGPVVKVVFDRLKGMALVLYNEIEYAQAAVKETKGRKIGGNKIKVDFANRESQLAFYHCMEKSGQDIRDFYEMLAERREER

[2] = target: T2, SPEN RRM 2-4 (Homo sapiens) (UniProt Q96T58); assay: EMSA; conditions: EMSA: 20 mM Tris-HCl pH 7.5, 150 mM KCl, 5 mM MgCl2, 10% glycerol, room temperature 30 min, 2 nM each labeled RNA (multiplexed), 4.5% TBE native gel
T2 sequence: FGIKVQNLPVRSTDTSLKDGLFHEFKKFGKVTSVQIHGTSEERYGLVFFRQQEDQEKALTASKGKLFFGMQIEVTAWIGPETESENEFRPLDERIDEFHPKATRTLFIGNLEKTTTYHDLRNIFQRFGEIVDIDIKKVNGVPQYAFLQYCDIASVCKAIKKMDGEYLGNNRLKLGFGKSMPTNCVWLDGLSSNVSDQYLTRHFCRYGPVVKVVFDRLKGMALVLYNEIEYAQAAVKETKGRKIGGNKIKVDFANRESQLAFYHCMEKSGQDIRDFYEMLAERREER

[3] = target: T3, SPEN RRM 2-4 mut3 F282A;K311A;Y319A;F321A;K353A (Homo sapiens) (UniProt Q96T58); assay: EMSA; conditions: EMSA: 20 mM Tris-HCl pH 7.5, 150 mM KCl, 5 mM MgCl2, 10% glycerol, room temperature 30 min, 2 nM each labeled RNA (multiplexed), 4.5% TBE native gel
T3 sequence: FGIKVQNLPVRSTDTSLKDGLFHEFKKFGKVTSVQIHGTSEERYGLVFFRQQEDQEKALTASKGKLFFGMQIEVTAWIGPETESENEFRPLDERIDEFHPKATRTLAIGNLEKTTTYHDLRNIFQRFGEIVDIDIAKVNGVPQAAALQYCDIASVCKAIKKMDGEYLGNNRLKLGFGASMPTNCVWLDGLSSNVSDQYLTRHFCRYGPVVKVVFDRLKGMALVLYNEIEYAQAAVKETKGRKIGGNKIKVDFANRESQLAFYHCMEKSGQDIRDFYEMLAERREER

[4] = target: T4, SPEN RRM 1-4 (Homo sapiens, UniProt Q96T58); assay: EMSA; Hill 1; EMSA: 20 mM Tris-HCl pH 7.5, 150 mM KCl, 5 mM MgCl2, 10% glycerol, room temperature 30 min, 2 nM each labeled RNA (multiplexed), 4.5% TBE native gel; conditions: protein: recombinant, tags: 6xHis-MBP-TEV at N-terminus, removed by TEV cleavage
T4 sequence: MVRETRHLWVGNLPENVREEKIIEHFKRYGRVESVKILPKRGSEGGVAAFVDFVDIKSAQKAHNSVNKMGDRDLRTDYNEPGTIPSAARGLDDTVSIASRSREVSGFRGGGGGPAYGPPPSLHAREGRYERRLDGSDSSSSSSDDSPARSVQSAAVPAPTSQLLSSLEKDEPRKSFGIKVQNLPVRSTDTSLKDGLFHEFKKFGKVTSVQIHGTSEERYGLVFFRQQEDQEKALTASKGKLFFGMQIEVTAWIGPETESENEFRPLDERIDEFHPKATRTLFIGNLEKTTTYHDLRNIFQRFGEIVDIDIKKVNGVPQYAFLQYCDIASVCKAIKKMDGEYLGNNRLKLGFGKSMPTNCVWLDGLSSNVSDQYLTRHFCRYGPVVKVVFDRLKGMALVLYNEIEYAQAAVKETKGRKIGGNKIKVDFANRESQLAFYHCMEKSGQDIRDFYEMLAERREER

[5] = target: T5, SPEN RRM 2-4 (Homo sapiens, UniProt Q96T58); assay: EMSA; Hill 10; EMSA: 20 mM Tris-HCl pH 7.5, 150 mM KCl, 5 mM MgCl2, 10% glycerol, room temperature 30 min, 2 nM each labeled RNA (multiplexed), 4.5% TBE native gel; conditions: protein: recombinant; tags: 6xHis-MBP-TEV at N-terminus, removed by TEV cleavage; label: internal Cy3-, Cy5- or fluorescein-UTP
T5 sequence: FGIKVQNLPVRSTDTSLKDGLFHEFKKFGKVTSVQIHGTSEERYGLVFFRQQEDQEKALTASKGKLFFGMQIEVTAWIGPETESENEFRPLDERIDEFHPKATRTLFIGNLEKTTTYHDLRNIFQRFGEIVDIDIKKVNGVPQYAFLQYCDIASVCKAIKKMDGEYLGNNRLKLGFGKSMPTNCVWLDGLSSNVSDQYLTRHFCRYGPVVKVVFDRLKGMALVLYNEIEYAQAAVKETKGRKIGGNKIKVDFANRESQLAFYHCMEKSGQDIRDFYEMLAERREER

[6] = target: T6, SPEN RRM 2-4 mut3 (Homo sapiens, UniProt Q96T58, F282A;K311A;Y319A;F321A;K353A); assay: EMSA; Hill 2; text: loss of binding (Kd >1000 nM); EMSA: 20 mM Tris-HCl pH 7.5, 150 mM KCl, 5 mM MgCl2, 10% glycerol, room temperature 30 min, 2 nM each labeled RNA (multiplexed), 4.5% TBE native gel; conditions: protein: recombinant; tags: 6xHis-MBP-TEV at N-terminus, removed by TEV cleavage; label: internal Cy3-, Cy5- or fluorescein-UTP
T6 sequence: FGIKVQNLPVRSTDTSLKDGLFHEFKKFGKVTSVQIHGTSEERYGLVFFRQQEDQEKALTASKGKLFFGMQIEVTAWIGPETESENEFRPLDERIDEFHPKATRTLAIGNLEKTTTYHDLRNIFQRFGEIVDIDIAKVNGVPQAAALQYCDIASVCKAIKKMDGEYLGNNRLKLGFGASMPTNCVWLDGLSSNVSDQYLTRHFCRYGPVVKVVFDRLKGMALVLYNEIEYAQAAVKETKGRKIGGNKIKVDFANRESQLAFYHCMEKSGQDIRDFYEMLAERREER

[7] = target: T4, SPEN RRM 1-4; assay: EMSA; Hill 2; EMSA: 20 mM Tris-HCl pH 7.5, 150 mM KCl, 5 mM MgCl2, 10% glycerol, room temperature 30 min, 2 nM each labeled RNA (multiplexed), 4.5% TBE native gel; conditions: protein: recombinant; tags: 6xHis-MBP-TEV at N-terminus, removed by TEV cleavage; label: internal fluorophore-UTP
[8] = target: T4, SPEN RRM 1-4; assay: EMSA; Hill 5; EMSA: 20 mM Tris-HCl pH 7.5, 150 mM KCl, 5 mM MgCl2, 10% glycerol, room temperature 30 min, 2 nM each labeled RNA (multiplexed), 4.5% TBE native gel; conditions: protein: recombinant; tags: 6xHis-MBP-TEV at N-terminus, removed by TEV cleavage; label: internal fluorophore-UTP
[9] = label: internal fluorophore-UTP

## GUACCAGGUAUGUGAUGACAUCAGCCGACGCCUGGCACUGCUGCAGGAACAGUGGGCUGGAGGAAAGUUGUCAAUACCUGUAAAGAAGAGAAUGGCUCUACUGGUGCAAGAGCUUUCAAGCCACCGGUGGGACGCAGCAGAUGACAUCCACCGCUCCCUCAUGGUUGACCAUGUGACUGAGGUCAGUCAGUGGAUGGUAGGAGUUAAAAGAUUAAUUGCAGAAAAGAGGAGUCUGUUUUCAGAGGAGGCAGCCAAUGAAGAGAAAUCUGCAGCCACAGCUGAGAAGAACCAUACCAUACCAGGCUUCCAGCAGGCUUCAUAAUCCUCGGUUCCCCAGACUCACCGGACACCAUCUCCU [SRA]
[1]
  Kd: 100 nM
[2]
  Kd: 300 nM
[3]
  Kd: 950 nM

## GCGAGGAGCCUUUCAUCCGAAGGCGGGACGAUGCCGGAUAAUCGGCAGCCGAGGAACCGGCAGCCGAGGAUCCGCUCCGGGAACGAGCCUCGUUCCGCGCCCGCCAUGGAACCGGAUGGUCGCGGUGCCUGGGCCCACAGUCGCGCCGCGCUCGACCGCCUGGAGAAGCUGCUGCGCUGCUCGCGUUGUACUAACAUUCUGAGAGAGCCUGUGUGUUUAGGAGGAA [BARD1 mRNA fragment]
[1]
  Kd: 210 nM

## GGGCUGCGGAUACCUGGUUUUAUUAUUUUUUCUUUGCCCAACGGGGCCGUGGAUACCUGCCUUUUAAUUCUUUUUUAUUCGCCCAUCGGGGCCGCGGAUACCUGCUUUUUAUUUUUUUUUCCUUAGCCCAUCGGGGUAUCGGAUACCUGCUGAUUCCCUUCCCCUCUGAACCCCCAACACUCUGGCCCAUCGGGGUGACGGAUAUCUGCUUUUUAAAAAUUUUCUUUUUUUGGCCCAUCGGGGCUUCGGAUACCUGCUUUUUUUUUUUUUAUUUUUCCUUGCCCAUCGGGGCCUCGGAUACCUGCUUUAAUUUUUGUUUUUCUGGCCCAUCGGGGCCGCGGAUACCUGCUUUGAUUUUUUUUUUUCAUCGCCCAUCGGUGCU [XIST A-full]
[1]
  Kd: 100 nM
[2]
  Kd: 120 nM
[3]
  Kd: 230 nM

B1: XIST A1-4 (structured_RNA)
RNA: GCUGCGGAUACCUGGUUUUAUUAUUUUUUCUUUGCCCAACGGGGCCGUGGAUACCUGCCUUUUAAUUCUUUUUUAUUCGCCCAUCGGGGCCGCGGAUACCUGCUUUUUAUUUUUUUUUCCUUAGCCCAUCGGGGUAUCGGAUACCUGCUGAUUCCCUUCCCCUCUGAACCCCCAACACUCUGGCCCAUCG
[4]; [9]
  Kd: 71 ± 4 nM

B2: BARD1 mRNA fragment (structured_RNA)
RNA: GCGAGGAGCCUUUCAUCCGAAGGCGGGACGAUGCCGGAUAAUCGGCAGCCGAGGAACCGGCAGCCGAGGAUCCGCUCCGGGAACGAGCCUCGUUCCGCGCCCGCCAUGGAACCGGAUGGUCGCGGUGCCUGGGCCCACAGUCGCGCCGCGCUCGACCGCCUGGAGAAGCUGCUGCGCUGCUCGCGUUGUACUAACAUUCUGAGAGAGCCUGUGUGUUUAGGAGGAA
[5]
  Kd: 550 ± 30 nM
[6]
  Kd: 2300 ± 500 nM

B3: XIST A7-8 (dimer) (structured_RNA)
RNA: GUUGCCCAUCGGGGCCUCGGAUACCUGCUUUAAUUUUUGUUUUUCUGGCCCAUCGGGGCCGCGGAUACCUGCUU
[4]; [9]
  Kd: 248 ± 68 nM

B4: tRNA-Cys (structured_RNA)
RNA: GGGGGUAUAGCUCAGGGGUAGAGCAUUUGACUGCAAAUCAAGAGGUCCCUGAUUCAAAUCCAGGUGCCCCCUCCAAGCUUG
[4]; [9]
  Kd: 245 ± 78 nM

B5: XIST A6-9 (structured_RNA)
RNA: GGCUUCGGAUACCUGCUUUUUUUUUUUUUAUUUUUCCUUGCCCAUCGGGGCCUCGGAUACCUGCUUUAAUUUUUGUUUUUCUGGCCCAUCGGGGCCGCGGAUACCUGCUUUGAUUUUUUUUUUUCAUCGCCCAUCGGUGCU
[7]
  Kd: 185 ± 9 nM

B6: XIST A6-8 (trimer) (structured_RNA)
RNA: GGCCCAUCGGGGCUUCGGAUACCUGCUUUUUUUUUUUUUAUUUUUCCUUGCCCAUCGGGGCCUCGGAUACCUGCUUUAAUUUUUGUUUUUCUGGCCCAUCGGGGCCGCGGAUACCUGCUU
[4]; [9]
  Kd: 288 ± 39 nM

B7: XIST A5-8 (structured_RNA)
RNA: GCCCAUCGGGGUGACGGAUAUCUGCUUUUUAAAAAUUUUCUUUUUUUGGCCCAUCGGGGCUUCGGAUACCUGCUUUUUUUUUUUUUAUUUUUCCUUGCCCAUCGGGGCCUCGGAUACCUGCUUUAAUUUUUGUUUUUCUGGCCCAUCGGGGCCGCGGAUACCUGCUU
[8]
  Kd: 127 ± 4 nM

B8: XIST A6-9+ (structured_RNA)
RNA: GGCUUCGGAUACCUGCUUUUUUUUUUUUUAUUUUUCCUUGCCCAUCGGGGCCUCGGAUACCUGCUUUAAUUUUUGUUUUUCUGGCCCAUCGGGGCCGCGGAUACCUGCUUUGAUUUUUUUUUUUCAUCGCCCAUCGGUGCUUUUUAUGGAUGAAAAAAUGUUGGUUUUGUGGGUUGUUGCACUCUCUGGAAUAUCUACACUUUUUUUUGCUGCUGAUCAUUUGGUGG
[4]; label: internal fluorophore-UTP (EMSA)
  Kd: 48 ± 5 nM

B9: XIST A4-6 (structured_RNA)
RNA: GCCGCGGAUACCUGCUUUUUAUUUUUUUUUCCUUAGCCCAUCGGGGUAUCGGAUACCUGCUGAUUCCCUUCCCCUCUGAACCCCCAACACUCUGGCCCAUCGGGGUGACGGAUAUCUGCUUUUUAAAAAUUUUCUUUUUUUGGCCCAUCGGGGCUUCGGAUACCUGCUUUUUUUUUUUUUAUUUUUCCUUGCCCAUCGGGG
[7]
  Kd: 132 ± 10 nM
